Data set [1] addresses T1, B3GNT2 (Homo sapiens, UniProt Q9NY97).
T1 construct: catalytic domain residues 35-397, secreted; N-terminal 8xHis-AviTag-sfGFP-TEV fusion kept; HEK293F host, Ni-NTA
T1 sequence (Q9NY97 35-397): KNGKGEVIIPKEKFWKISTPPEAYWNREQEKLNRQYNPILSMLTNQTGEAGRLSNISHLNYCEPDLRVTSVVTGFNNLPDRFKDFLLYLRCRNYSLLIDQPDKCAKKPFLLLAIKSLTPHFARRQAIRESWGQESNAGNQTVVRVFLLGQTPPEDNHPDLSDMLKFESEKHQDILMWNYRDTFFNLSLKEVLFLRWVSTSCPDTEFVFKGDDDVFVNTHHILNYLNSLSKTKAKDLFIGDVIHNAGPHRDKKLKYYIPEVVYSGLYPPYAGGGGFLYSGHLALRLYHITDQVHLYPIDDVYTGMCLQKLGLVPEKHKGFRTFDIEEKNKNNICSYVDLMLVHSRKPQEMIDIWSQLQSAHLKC
Briefly: radioactive GlcNAc transfer, scintillation counting. The format is biochemical. The settings on record: 0.1 M MES pH 6.5, 10 mM MnCl2, 37 °C, overnight.

Substrate in data set [2]: O=[N+]([O-])c1ccc(O[C@@H]2OC[C@@H](O)[C@H](O)[C@H]2O)cc1
As to the kind of experiment: purified protein. The note with it: 2 mM UDP-GlcA, 0.1 M MES pH 6.5, 10 mM MnCl2, 5 mM MgCl2, 37 °C, 2 h, acceptor tested 200 nM to 2 mM. The format is biochemical, Homo sapiens.

Substrate in data set [3]: O=[N+]([O-])c1ccc(O[C@H]2OC[C@@H](O)[C@H](O)[C@H]2O)cc1
As to the kind of experiment: purified protein. It counts as biochemical, Homo sapiens. The note with it: 2 mM UDP-GlcA, 0.1 M MES pH 6.5, 10 mM MnCl2, 5 mM MgCl2, 37 °C, acceptor tested 200 nM to 2 mM.

The mark [4] stands for this setting: 16 h, glucuronyltransferase activity.

As to `CC(=O)N[C@H]1[C@H](Oc2ccc([N+](=O)[O-])cc2)O[C@H](CO)[C@@H](O[C@@H]2O[C@H](CO)[C@H](O)[C@H](O)[C@H]2O)[C@@H]1O` [Gal-β4-GlcNAc-β-pNP], the “radioactive GlcNAc transfer, scintillation counting” value in data set [1] (2 mM UDP-GlcNAc with UDP-[3H]GlcNAc) is “showed clear N-acetylglucosaminyltransferase activity toward the acceptor only with B3GNT2”.
With `CC(=O)N[C@H]1[C@@H](OP(=O)(O)OP(=O)(O)OC[C@H]2O[C@@H](n3ccc(=O)[nH]c3=O)[C@H](O)[C@@H]2O)O[C@H](CO)[C@@H](O)[C@@H]1O` [UDP-GlcNAc], the “radioactive GlcNAc transfer, scintillation counting” value in data set [1] (donor, labelled compound, acceptor Gal-β4-GlcNAc-β-pNP) is reported as “radioactive incorporation of GlcNAc into the N-acetyllactosamine acceptor”.

B1: B3GNT1 (B4GAT1) (Homo sapiens) (protein)
chain: RSVDQVKAQLRTALASGGVLDASGDYRVYRGLLKTTMDPNDVILATHASVDNLLHLSGLLERWEGPLSVSVFAATKEEAQLATVLAYALSSHCPDMRARVAMHLVCPSRYEAAVPDPREPGEFALLRSCQEVFDKLARVAQPGINYALGTNVSYPNNLLRNLAREGANYALVIDVDMVPSEGLWRGLREMLDQSNQWGGTALVVPAFEIRRARRMPMNKNELVQLYQVGEVRPFYYGLCTPCQAPTNYSRWVNLPEESLLRPAYVVPWQDPWEPFYVAGGKVPTFDERFRQYGFNRISQACELHVAGFDFEVLNEGFLVHKGFKEALKFHPQKEAENQHNKILYRQFKQELKAKYPNSPRRC
notes: catalytic domain residues 54-415, secreted, transmembrane domain removed; N-terminal 8xHis-AviTag-sfGFP-TEV fusion cut by TEV; HEK293F host, Ni-NTA
For B1, in data set [2], the Km (commonly the substrate concentration at which the rate is half of its maximum) is on record as 4.0 mM; the kcat (commonly the number of substrate molecules converted per active site and unit of time at saturation) was determined as 0.25 s⁻¹; the kcat/Km (commonly the second-order rate constant that governs catalysis at low substrate concentration) is 63 M⁻¹ s⁻¹. In data set [3] (2 h), the Km was determined as 3.0 mM, the kcat came to 0.087 s⁻¹ and the kcat/Km was 29 M⁻¹ s⁻¹.

B2: LARGE (Homo sapiens) (protein)
chain: PSHRRGNHSKTYSMEEGTGDSENLRAGIVAGNSSECGQQPVVEKCETIHVAIVCAGYNASRDVVTLVKSVLFHRRNPLHFHLIADSIAEQILATLFQTWMVPAVRVDFYNADELKSEVSWIPNKHYSGIYGLMKLVLTKTLPANLERVIVLDTDITFATDIAELWAVFHKFKGQQVLGLVENQSDWYLGNLWKNHRPWPALGRGYNTGVILLLLDKLRKMKWEQMWRLTAERELMGMLSTSLADQDIFNAVIKQNPFLVYQLPCFWNVQLSDHTRSEQCYRDVSDLKVIHWNSPKKLRVKNKHVEFFRNLYLTFLEYDGNLLRRELFGCPSEADVNSENLQKQLSELDEDDLCYEFRRERFTVHRTHLYFLHYEYEPAADSTDVTLVAQLSMDRLQMLEAICKHWEGPISLALYLSDAEAQQFLRYAQGSEVLMSRHNVGYHIVYKEGQFYPVNLLRNVAMKHISTPYMFLSDIDFLPMYGLYEYLRKSVIQLDLANTKKAMIVPAFETLRYRLSFPKSKAELLSMLDMGTLFTFRYHVWTKGHAPTNFAKWRTATTPYRVEWEADFEPYVVVRRDCPEYDRRFVGFGWNKVAHIMELDVQEYEFIVLPNAYMIHMPHAPSFDITKFRSNKQYRICLKTLKEEFQQDMSRRYGFAALKYLTAENNS
notes: catalytic domains residues 91-756, secreted; N-terminal 8xHis-AviTag-sfGFP-TEV fusion kept; HEK293F host, Ni-NTA
Take B2: in data set [3] (setting [4]), the Km is 6.0 mM, the kcat turned out to be 0.005 s⁻¹ and the kcat/Km came to 0.84 M⁻¹ s⁻¹.
